Data on seven molecules can be found in patent US20080057055A1, “OLD-35 as an inflammatory agent” (priority 2004, published 2008).

B1: ΔRPH1 deletion mutant of hPNPase^OLD-35 (a.a. 183-783) with C-terminal HA tag (enzyme)
chain: PWNGPVGAVRIGIIDGEYVVNPTRKEMSSSTLNLVVAGAPKSQIVMLEASAENILQQDFCHAIKVGVKYTQQIIQGIQQLVKETGVTKRTPQKLFTPSPEIVKYTHKLAMERLYAVFTDYEHDKVSRDEAVNKIRLDTEEQLKEKFPEADPYEIIESFNVVAKEVFRSIVLNEYKRCDGRDLTSLRNVSCEVDMFKTLHGSALFQRGQTQVLCTVTFDSLESGIKSDQVITAINGIKDKNFMLHYEFPPYATNEIGKVTGLNRRELGHGALAEKALYPVIPRDFPFTIRVTSEVLESNGSSSMASACGGSLALMDSGVPISSAVAGVAIGLVTKTDPEKGEIEDYRLLTDILGIEDYNGDMDFKIAGTNKGITALQADIKLPGIPIKIVMEAIQQASVAKKEILQIMNKTISKPRASRKENGPVVETVQVPLSKRAKFVGPGGYNLKKLQAETGVTISQVDEETFSVFAPTPSVMHEARDFITEICKDDQEQQLEFGAVYTATITEIRDTGVMVKLYPNMTAVLLHNTQLDQRKIKHPTALGLEVGQEIQVKYFGRDPADGRMRLSRKVLQSPATTVVRTLNDRSSIVMGEPISQSSSNSQYPYDVPDYA
notes: also called Ad.ΔRPH1; pΔRPH1
B2: ΔC-term deletion mutant of hPNPase^OLD-35 (a.a. 1-507) with C-terminal HA tag (enzyme)
chain: MAACRYCCSCLRLRPLSDGPFLLPRRDRALTQLQVRALWSSAGSRAVAVDLGNRKLEISSGKLARFADGSAVVQSGDTAVMVTAVSKTKPSPSQFMPLVVDYRQKAAAAGRIPTNYLRREVGTSDKEILTSRIIDRSIRPLFPAGYFYDTQVLCNLLAVDGVNEPDVLAINGASVALSLSDIPWNGPVGAVRIGIIDGEYVVNPTRKEMSSSTLNLVVAGAPKSQIVMLEASAENILQQDFCHAIKVGVKYTQQIIQGIQQLVKETGVTKRTPQKLFTPSPEIVKYTHKLAMERLYAVFTDYEHDKVSRDEAVNKIRLDTEEQLKEKFPEADPYEIIESFNVVAKEVFRSIVLNEYKRCDGRDLTSLRNVSCEVDMFKTLHGSALFQRGQTQVLCTVTFDSLESGIKSDQVITAINGIKDKNFMLHYEFPPYATNEIGKVTGLNRRELGHGALAEKALYPVIPRDFPFTIRVTSEVLESNGSSSMASACGGSLALMDSGVPISSAVAYPYDVPDYA
notes: also called Ad.ΔC-term; pΔC-term
B3: ΔRPH2 deletion mutant of hPNPase^OLD-35 (a.a. 1-202 and 496-783) with C-terminal HA tag (enzyme)
chain: MAACRYCCSCLRLRPLSDGPFLLPRRDRALTQLQVRALWSSAGSRAVAVDLGNRKLEISSGKLARFADGSAVVQSGDTAVMVTAVSKTKPSPSQFMPLVVDYRQKAAAAGRIPTNYLRREVGTSDKEILTSRIIDRSIRPLFPAGYFYDTQVLCNLLAVDGVNEPDVLAINGASVALSLSDIPWNGPVGAVRIGIIDGEYVVMDSGVPISSAVAGVAIGLVTKTDPEKGEIEDYRLLTDILGIEDYNGDMDFKIAGTNKGITALQADIKLPGIPIKIVMEAIQQASVAKKEILQIMNKTISKPRASRKENGPVVETVQVPLSKRAKFVGPGGYNLKKLQAETGVTISQVDEETFSVFAPTPSVMHEARDFITEICKDDQEQQLEFGAVYTATITEIRDTGVMVKLYPNMTAVLLHNTQLDQRKIKHPTALGLEVGQEIQVKYFGRDPADGRMRLSRKVLQSPATTVVRTLNDRSSIVMGEPISQSSSNSQYPYDVPDYA
notes: The two fragments were joined at an HpaI site; also called Ad.ΔRPH2; pΔRPH2
B4: NF-κB p50 subunit (other, human, UniProt P19838 1-433, looked up)
chain: MAEDDPYLGRPEQMFHLDPSLTHTIFNPEVFQPQMALPTDGPYLQILEQPKQRGFRFRYVCEGPSHGGLPGASSEKNKKSYPQVKICNYVGPAKVIVQLVTNGKNIHLHAHSLVGKHCEDGICTVTAGPKDMVVGFANLGILHVTKKKVFETLEARMTEACIRGYNPGLLVHPDLAYLQAEGGGDRQLGDREKELIRQAALQQTKEMDLSVVRLMFTAFLPDSTGSFTRRLEPVVSDAIYDSKAPNASNLKIVRMDRTAGCVTGGEEIYLLCDKVQKDDIQIRFYEEEENGGVWEGFGDFSPTDVHRQFAIVFKTPKYKDINITKPASVFVQLRRKSDLETSEPKPFLYYPEIKDKEEVQRKRQKLMPNFSDSFGGGSGAGAGGGGMFGSGGGGGGTGSTGPGYSFPHYGFPTYGGITFHPGTTKSNAGMKHG
notes: also called NF-κB1 (p50/p105)
B5: pGADD153: unrelated plasmid that expresses a transcription factor (protein, UniProt P35638 1-169, looked up)
DNA damage-inducible …: MAAESLPFSFGTLSSWELEAWYEDLQEVLSSDENGGTYVSPPGNEEEESKIFTTLDPASLAWLTEEEPEPAEVTSTSQSPHSPDSSQSSLAQEEEEEDQGRTRKRKQSGHSPARAGKQRMKEKEQENERKVAQLAEENERLKQEIERLTREVEATRRALIDRMVNLHQA
modifications: expressed from plasmid
notes: unrelated plasmid that expresses a transcription factor
B6: pΔRPH1+2: plasmid for ΔRPH1+2 deletion mutant, in vitro translated protein of 31 kDa (protein)
chain: MDSGVPISSAVAGVAIGLVTKTDPEKGEIEDYRLLTDILGIEDYNGDMDFKIAGTNKGITALQADIKLPGIPIKIVMEAIQQASVAKKEILQIMNKTISKPRASRKENGPVVETVQVPLSKRAKFVGPGGYNLKKLQAETGVTISQVDEETFSVFAPTPSVMHEARDFITEICKDDQEQQLEFGAVYTATITEIRDTGVMVKLYPNMTAVLLHNTQLDQRKIKHPTALGLEVGQEIQVKYFGRDPADGRMRLSRKVLQSPATTVVRTLNDRSSIVMGEPISQSSSNSQYPYDVPDYA
B7: phPNPase^old-35: plasmid expressing full-length HA-tagged hPNPase^OLD-35 protein, in vitro translated for RNA degradation assays (protein, UniProt Q8TCS8 1-783, looked up)
chain: MAACRYCCSCLRLRPLSDGPFLLPRRDRALTQLQVRALWSSAGSRAVAVDLGNRKLEISSGKLARFADGSAVVQSGDTAVMVTAVSKTKPSPSQFMPLVVDYRQKAAAAGRIPTNYLRREIGTSDKEILTSRIIDRSIRPLFPAGYFYDTQVLCNLLAVDGVNEPDVLAINGASVALSLSDIPWNGPVGAVRIGIIDGEYVVNPTRKEMSSSTLNLVVAGAPKSQIVMLEASAENILQQDFCHAIKVGVKYTQQIIQGIQQLVKETGVTKRTPQKLFTPSPEIVKYTHKLAMERLYAVFTDYEHDKVSRDEAVNKIRLDTEEQLKEKFPEADPYEIIESFNVVAKEVFRSIVLNEYKRCDGRDLTSLRNVSCEVDMFKTLHGSALFQRGQTQVLCTVTFDSLESGIKSDQVITAINGIKDKNFMLHYEFPPYATNEIGKVTGLNRRELGHGALAEKALYPVIPRDFPFTIRVTSEVLESNGSSSMASACGGSLALMDSGVPISSAVAGVAIGLVTKTDPEKGEIEDYRLLTDILGIEDYNGDMDFKIAGTNKGITALQADIKLPGIPIKIVMEAIQQASVAKKEILQIMNKTISKPRASRKENGPVVETVQVPLSKRAKFVGPGGYNLKKLQAETGVTISQVDEETFSVFAPTPSAMHEARDFITEICKDDQEQQLEFGAVYTATITEIRDTGVMVKLYPNMTAVLLHNTQLDQRKIKHPTALGLEVGQEIQVKYFGRDPADGRMRLSRKVLQSPATTVVRTLNDRSSIVMGEPISQSSSNSQ
modifications: full-length HA tag
notes: plasmid expressing full-length HA-tagged hPNPase^OLD-35 protein, in vitro translated for RNA degradation assays

One data set concerns the molecule itself. Put plainly: self-association inferred from anti-HA Western blot of fractionated HO-1 cells.
Settings: not given
Regarding B1, the binding result is reported as “no binding”.

With B2, the binding result is “no binding”.

In the case of B3, the binding result is recorded as “no binding”.

In another data set the target is NF-κB p65 subunit (RelA) (human, UniProt Q04206 1-551). Kind of data set: complex composition inferred from EMSA supershift.
NF-κB p65 subunit (RelA), sequence (Q04206 whole entry): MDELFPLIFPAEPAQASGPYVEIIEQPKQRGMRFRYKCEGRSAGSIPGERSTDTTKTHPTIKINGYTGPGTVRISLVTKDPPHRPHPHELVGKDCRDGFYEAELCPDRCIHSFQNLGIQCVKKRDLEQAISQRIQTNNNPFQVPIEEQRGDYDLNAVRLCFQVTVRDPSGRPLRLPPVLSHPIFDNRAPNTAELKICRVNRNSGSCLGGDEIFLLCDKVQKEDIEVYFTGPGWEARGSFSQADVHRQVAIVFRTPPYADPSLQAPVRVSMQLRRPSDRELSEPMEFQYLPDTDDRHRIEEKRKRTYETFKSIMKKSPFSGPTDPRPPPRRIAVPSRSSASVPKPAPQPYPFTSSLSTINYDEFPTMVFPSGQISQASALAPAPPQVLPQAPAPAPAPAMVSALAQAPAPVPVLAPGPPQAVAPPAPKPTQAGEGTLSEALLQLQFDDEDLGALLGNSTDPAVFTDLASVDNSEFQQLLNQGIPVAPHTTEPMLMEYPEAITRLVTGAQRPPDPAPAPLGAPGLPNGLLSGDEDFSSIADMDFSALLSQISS
Settings: not given
On the technique in general: In EMSA bound probe runs differently from free probe, usually more slowly.
As for B4, the binding result is given as “binds”.

Another data set has as its system c-myc mRNA. Put plainly: In vitro mRNA degradation assay with in vitro translated proteins. The data set is classed as biochemical, human. To be noted: in vitro translated protein incubated with HO-1 total RNA for 0.5 and 2 h. The procedure:
In vitro Translation and in vitro mRNA Degradation Assays: In vitro translation was performed using the TNT coupled Reticulocyte Lysate Systems (Promega) using the plasmids pcDNA3.1+(Hygro) as a control, GADD153 expression plasmid, phPNPase^old-35, pΔRPH1, pΔRPH2, pΔRPH1+2 and pΔC-term according to the manufacturer's protocol. Five […] of total RNA from HO-1 cells were incubated with 5 μl of each in vitro translated protein at 37° C. from 0.5 to 2 h. The RNA was repurified using the Qiagen RNeasy mini kit (Qiagen) and Northern blotting was performed.
As to B1, the “degradation of c-myc mRNA” value is listed as “significant degradation”.

With B2, the “degradation of c-myc mRNA” value is recorded as “significant degradation”.

B5: the “degradation of c-myc mRNA” value is recorded as “No degradation”.

Take B6: the “degradation of c-myc mRNA” value is “No degradation”.

For the molecule B3, the “degradation of c-myc mRNA” value is “significant degradation”.

As for B7, the “degradation of c-myc mRNA” value was “significant degradation”.
